As a reminder, the Km is the concentration of substrate that gives half-maximal velocity.

Data set [1] concerns O=C(O)/C=C/c1c[nH]cn1. As to the kind of experiment: purified protein. Particulars: pH 8.0; 25.0 °C.
Data set [2] relates to C[N+](C)(C)[C@@H](Cc1cnc[nH]1)C(=O)[O-]. As to the kind of experiment: purified protein. It is filed as biochemical, Shewanella woodyi. Particulars: pH 8.5.

“Swoo_3912 (Shewanella woodyi ATCC 51908)”: in data set [1], the Km worked out at 0.7 ± 0.1 µM.

Turning to “Swoo_3913 (Shewanella woodyi ATCC 51908)”, the Km in data set [2] amounted to 103 ± 8 µM.

These data come from article doi:10.1101/2025.08.13.670108v1.
